Source: article PMC5352466 (Bioconjugate chemistry, 2017)

Experiment: Pharmacokinetics study in mice after tail vein injection
Type: in vivo
Conditions: fasted CD1 mice, i.v. tail vein, 16 Qg/kg of insulin, 3-60 min, ELISA, n = 5

insulin
plasma concentration of insulin after injection: not detectable at any time point
